The record followed here is paper PMC3715477.

One may read the stoichiometry N as a count of units in the complex or per binding partner.

A value given as a limit tells only on which side of the number the result lay.

For this assay, the target named is CC-Gp047 (residues 1040–1365 of Gp047, putative receptor binding protein of C. jejuni phage NCTC12673) (Campylobacter jejuni phage NCTC12673). The assay is described as follows: SDS-resistant oligomers (method not named; data not shown); data not shown; oligomers called SDS-resistant; construct and conditions not told.

“CC-Gp047 (residues 1040–1365 of Gp047, putative receptor binding protein of C. jejuni phage NCTC12673) (domain or fragment)”: the stoichiometry N was greater than 3.
